Measured values published in patent US20160168251A1 (MorphoSys, published 2016).
Substitutions are numbered along the chain they refer to.

T1: human NPRA on HEK293 cells, without added ligand (human, UniProt P16066 33-1061)
T1 construct: a signal peptide is not delimited; also called HEK NPRA cells; HEK hNPRA cells
T1 sequence: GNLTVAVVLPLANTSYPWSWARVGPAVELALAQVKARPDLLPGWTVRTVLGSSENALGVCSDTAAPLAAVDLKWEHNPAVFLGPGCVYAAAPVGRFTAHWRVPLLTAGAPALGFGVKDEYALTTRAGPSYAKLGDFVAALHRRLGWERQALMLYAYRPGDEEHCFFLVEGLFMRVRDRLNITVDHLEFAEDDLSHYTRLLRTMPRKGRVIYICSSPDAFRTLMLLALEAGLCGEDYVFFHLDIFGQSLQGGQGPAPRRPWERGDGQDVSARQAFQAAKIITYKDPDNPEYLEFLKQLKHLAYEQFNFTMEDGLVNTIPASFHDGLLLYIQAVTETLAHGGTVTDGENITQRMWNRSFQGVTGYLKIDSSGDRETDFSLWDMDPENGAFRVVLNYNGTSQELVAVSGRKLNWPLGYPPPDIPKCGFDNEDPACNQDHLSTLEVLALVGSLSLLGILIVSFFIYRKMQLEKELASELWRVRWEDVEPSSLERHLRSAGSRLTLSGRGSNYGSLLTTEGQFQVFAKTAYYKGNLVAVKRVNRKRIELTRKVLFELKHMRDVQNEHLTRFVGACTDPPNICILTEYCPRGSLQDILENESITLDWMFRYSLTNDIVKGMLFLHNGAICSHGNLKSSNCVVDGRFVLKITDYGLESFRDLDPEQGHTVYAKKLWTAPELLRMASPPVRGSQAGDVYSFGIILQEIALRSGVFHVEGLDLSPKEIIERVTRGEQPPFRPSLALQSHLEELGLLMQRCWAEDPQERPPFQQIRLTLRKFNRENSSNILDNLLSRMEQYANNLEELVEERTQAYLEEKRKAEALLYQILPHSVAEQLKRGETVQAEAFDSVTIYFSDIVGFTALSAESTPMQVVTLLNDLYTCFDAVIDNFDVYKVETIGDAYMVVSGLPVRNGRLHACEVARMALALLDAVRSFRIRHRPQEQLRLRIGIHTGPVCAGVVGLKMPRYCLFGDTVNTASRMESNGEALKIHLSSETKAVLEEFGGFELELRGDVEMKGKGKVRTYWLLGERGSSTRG

T2: human NPRB on HEK293 cells, without added ligand (human, UniProt P20594 23-1047)
T2 construct: whole, on cells; also called HEK NPRB cells; natriuretic peptide receptor B
T2 sequence (looked up): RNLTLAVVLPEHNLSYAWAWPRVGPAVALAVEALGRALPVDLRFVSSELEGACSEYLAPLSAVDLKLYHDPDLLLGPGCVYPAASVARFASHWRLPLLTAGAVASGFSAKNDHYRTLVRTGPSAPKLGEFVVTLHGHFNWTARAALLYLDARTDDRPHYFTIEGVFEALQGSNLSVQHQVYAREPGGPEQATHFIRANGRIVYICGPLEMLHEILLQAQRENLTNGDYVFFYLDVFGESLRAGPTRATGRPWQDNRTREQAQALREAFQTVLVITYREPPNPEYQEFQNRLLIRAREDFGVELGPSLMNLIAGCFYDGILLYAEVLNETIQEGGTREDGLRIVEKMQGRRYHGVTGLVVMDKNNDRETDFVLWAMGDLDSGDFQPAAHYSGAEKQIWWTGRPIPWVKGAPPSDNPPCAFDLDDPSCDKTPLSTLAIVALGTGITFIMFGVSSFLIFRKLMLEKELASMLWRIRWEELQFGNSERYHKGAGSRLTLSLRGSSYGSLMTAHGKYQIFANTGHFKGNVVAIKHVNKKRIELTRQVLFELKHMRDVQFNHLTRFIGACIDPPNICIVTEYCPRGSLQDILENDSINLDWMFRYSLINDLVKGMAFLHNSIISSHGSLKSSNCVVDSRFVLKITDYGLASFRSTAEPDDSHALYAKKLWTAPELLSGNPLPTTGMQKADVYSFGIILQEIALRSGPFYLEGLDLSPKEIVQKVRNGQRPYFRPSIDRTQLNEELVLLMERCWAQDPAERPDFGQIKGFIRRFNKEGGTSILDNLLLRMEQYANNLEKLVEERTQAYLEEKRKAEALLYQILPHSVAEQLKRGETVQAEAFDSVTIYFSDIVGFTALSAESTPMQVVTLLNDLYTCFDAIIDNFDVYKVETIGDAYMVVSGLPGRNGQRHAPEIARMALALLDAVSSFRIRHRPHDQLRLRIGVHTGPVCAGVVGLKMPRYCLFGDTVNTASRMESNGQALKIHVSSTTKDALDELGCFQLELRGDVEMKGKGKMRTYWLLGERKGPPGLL

T3: human NPRA on HEK293 cells bound to ANP (human, UniProt P01160 124-151)
T3 construct: mature; Receptor-ligand complex on cells; also called HEK NPRA cells loaded with ANP; ANP-NPRA complex
T3 sequence: T1 sequence
T3 sequence (peptide): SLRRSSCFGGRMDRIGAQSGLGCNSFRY

B1: 5502 IgG4_Pro (antibody, V domains shown)
VH: QVQLQQSGPGLVKPSQTLSLTCAISGDSVSSRSASWSWIRQSPGRGLEWLGRIYYRSKWYNDYAVSVKSRITINPDTSKNQFSLQLNSVTPEDTAVYYCARMDVPSFRYFDVWGQGTLVTVSS
VL: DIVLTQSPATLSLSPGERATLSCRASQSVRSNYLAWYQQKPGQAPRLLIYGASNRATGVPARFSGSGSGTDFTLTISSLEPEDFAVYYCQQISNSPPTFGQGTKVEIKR
notes: Human IgG4_Pro
B2: 5591 IgG4_Pro (antibody, V domains shown)
VH: B1 VH with I53T, K58H, N61Y, D62E, V65Q
VL: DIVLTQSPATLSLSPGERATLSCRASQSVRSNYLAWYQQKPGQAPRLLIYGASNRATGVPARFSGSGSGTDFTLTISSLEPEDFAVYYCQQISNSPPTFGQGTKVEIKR

Tests used:
[1] = target: T1, human NPRA on HEK293 cells, without …; test: FACS, HEK NPRA cells without ligand
[2] = target: T4, human NPRB on HEK293 cells in the presence of CNP (human, UniProt P20594 23-1047; P23582 105-126); test: FACS, HEK NPRB cells with 100 nM CNP
T4 construct: whole, on cells;mature; also called HEK NPRB cells + 100 nM CNP
T4 sequence (P23582 105-126 limits assumed, chain 2 of 2, one chain of several): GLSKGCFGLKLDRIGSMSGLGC
Description: (§1) HEK NPRA cells are detached with Accutase (PAA Laboratories GmbH, Cat. No. L11-007, Austria), harvested by centrifugation (900 rpm, 4 minutes) and resuspended in FACS buffer (PBS/3% FCS/0.02% NaN3) to a final concentration of 10⁶ cells/ml. 100 μl of the cell suspension is transferred to each well of a 96 round bottom plate (TC Microwell 96U, Nunc). […] Cells are washed in 150 μl of FACS buffer, pelleted and resuspended in 50 μl of the solution containing the primary antibody comprising a BEL extract of Fabs, a diluted BEL extract or purified antibody diluted in FACS buffer and incubated on ice for 30 min. Cells are washed again in FACS buffer and resuspended in 50 μl of FACS buffer containing the secondary antibody (R-Phycoerythrin-conjugated Affipure F(ab′)₂ Fragment Goat Anti-Human IgG, Dianova) and incubated on ice for 45 min. Cells are washed twice with FACS buffer and resuspended in 200 μl of FACS buffer for analysis in the FACS Array (BD Biosciences).

[3] = target: T2, human NPRB on HEK293 cells, without …; test: FACS, HEK NPRB cells without ligand
Description: as §1

[4] = target: T3, human NPRA on HEK293 cells bound to ANP; test: KinExA whole cell binding, HEK NPRA cells with 1 nM ANP, against SPR on NPRA-Fc
[5] = target: canine NPRA on HEK cells bound to ANP (canine, UniProt A0A8I3MHU3 32-1060); test: KinExA whole cell binding (Kd,app), HEK cells with canine NPRA, ANP bound
Sequence of canine NPRA on HEK cells bound to ANP (A0A8I3MHU3 entry or part of it): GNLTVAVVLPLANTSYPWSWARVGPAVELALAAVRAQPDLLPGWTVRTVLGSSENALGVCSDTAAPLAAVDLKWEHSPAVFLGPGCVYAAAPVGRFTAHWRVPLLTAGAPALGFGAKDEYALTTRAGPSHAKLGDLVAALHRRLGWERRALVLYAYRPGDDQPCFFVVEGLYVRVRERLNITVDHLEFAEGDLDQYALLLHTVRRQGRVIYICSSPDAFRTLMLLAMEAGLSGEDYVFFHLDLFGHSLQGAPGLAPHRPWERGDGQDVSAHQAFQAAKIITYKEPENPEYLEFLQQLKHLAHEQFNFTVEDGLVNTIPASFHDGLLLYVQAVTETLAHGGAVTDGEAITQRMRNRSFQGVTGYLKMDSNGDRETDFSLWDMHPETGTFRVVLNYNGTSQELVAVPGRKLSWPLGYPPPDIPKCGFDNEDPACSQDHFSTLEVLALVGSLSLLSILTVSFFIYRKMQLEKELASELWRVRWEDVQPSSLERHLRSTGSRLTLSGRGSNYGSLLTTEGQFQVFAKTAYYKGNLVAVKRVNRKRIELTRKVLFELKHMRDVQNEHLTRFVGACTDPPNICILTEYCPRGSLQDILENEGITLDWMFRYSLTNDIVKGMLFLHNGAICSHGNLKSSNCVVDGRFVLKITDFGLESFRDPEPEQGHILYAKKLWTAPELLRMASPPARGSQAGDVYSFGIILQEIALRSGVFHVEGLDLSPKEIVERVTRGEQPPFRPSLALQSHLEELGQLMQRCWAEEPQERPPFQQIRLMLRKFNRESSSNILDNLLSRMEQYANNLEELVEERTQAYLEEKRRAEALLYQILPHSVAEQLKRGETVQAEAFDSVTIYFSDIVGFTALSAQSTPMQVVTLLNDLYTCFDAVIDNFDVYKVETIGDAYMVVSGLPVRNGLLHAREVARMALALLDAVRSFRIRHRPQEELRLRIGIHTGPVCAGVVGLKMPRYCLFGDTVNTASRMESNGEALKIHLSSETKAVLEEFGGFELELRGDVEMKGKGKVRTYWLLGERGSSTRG

[6] = target: T3, human NPRA on HEK293 cells bound to ANP; test: KinExA whole cell binding (Kd,app), HEK cells with human NPRA, ANP bound, 75 and 200 pM IgG
Description: Initial species cross-reactivity studies are performed using HEK cell lines overexpressing rat, canine and rhesus monkey NPRA. […] These apparent Kd values are obtained by globally fitting the data for two antibody concentrations.

| Binder | binding result [1] | binding result [2] | binding result [3] | fold, apparent Kd on cells (KinExA) over Kd by surface plasmon resonance on NPRA-Fc [4] | Kd [5] | Kd [6] |
| --- | --- | --- | --- | --- | --- | --- |
| B1 | no binding (tested: 20 nM) | no binding (tested: 20 nM) | no binding (tested: 20 nM) | – | – | – |
| B2 | – | – | – | ~20 fold | 0.096 nM | 0.59 nM |
